Reference: patent publication US20220241314A1, “COMPOSITIONS AND METHODS FOR TREATMENT OF HEPATITIS B VIRUS INFECTION” (priority 2019, published 2022)
{ppp} = triphosphate

Assays:
in vitro = conditions: human
Method: (§3) HepG2-NTCP Cells (10A and 10C), dHepaRG (10B and 10D), and PHH (10E) were treated with increasing doses of F7 or poly-U/UC PAMP for 72 hours. Cell viability was determined concurrently by measuring ATP content, with values normalized to mock-treated cells. Graph represents the mean of triplicated samples in each of 3 independent experiments, with error bars showing standard deviation.ns=non-significant.
(§4) To determine the values of 90% of maximal Inhibitory concentration (IC90) and half-maximal Inhibitory concentration (IC50), as well as the cytotoxic concentration, CC50, of F7 and poly-U/UC, PAMP, two different cell lines were used, HepG2-hNTCP and dHepaRG cells.
(§5) Cytotoxicity assays: Cytotoxicity was evaluated from cultures of HepG2-C3A -hNTCP and dHepaRG cells using CellTiter-Glo as described (Edwards, T. C., et al. (2019). Inhibition of HBV replication by N-hydroxvisoquinolinedione and N-hydroxypyridinedinone ribonuclease H inhibitors. Antiviral research 164, 70-80). […] Cytotoxicity of each was measured with the ATP content as a measure of cell viability using the CellTiter-Glo™ reagent (Promega) per manufacturer's instructions. The plates were read using a luminescence plate reader (Berthold) and the relative luminescence unit (RLU) data generated from each well was calculated as percent signal compared to the untreated control. […]

IRF3 = assay: Innate immune activation in primary human hepatocytes (immunoblot, RT-qPCR); assay type: cell-based; conditions: PHH, 24 and 72 hours
Method: (§1) FIGS. 7A-7C illustrate suppression of cccDNA in primary human hepatocytes. (7A) PHH were cultured alone or were treated with 100 ng/ml X-RNA (X100), or 50 ng/ml (P50), 100 ng/ml (P100) or 200 ng/ml (P200) poly-U/UC PAMP or were infected with SenV (control) and harvested 24 and 72 hours later. The cell lysates were analyzed by immunoblot for p-IRF3 (S386 phosphorylated, active IRF3), IRF3 (total IRF3), IFIT1, and Actin (control) using respective antibodies. (7B) PHH cultures were cultured alone or were treated with 100 ng/ml X-RNA (X100), or 100 ng/ml (P100) or 200 ng/ml (P200) poly-U/UC PAMP or were infected with SenV (control) and harvested 24 and 72 later. Cells were harvested, RNA extracted and analyzed by RT-qPCR to measure the expression levels of the indicated innate immune genes normalized to the level of GAPDH expression. Values are shown on the heat map as mean fold induction over nontreated cells from three independent experiments. (7C) PHH cultures were inoculated with HBV at moi of 200 Geq/cell. […] Three days later the cells were harvested, DNA isolated by isolated Hirt extraction, and analyzed by Southern blot using a HBV-specific probe. […]
(§2) PHH cultures were treated over a poly-U/UC PAMP dose-response and assessed innate immune activation. […]

dHepaRG cells = assay: Cytotoxicity, cellular ATP content (CellTiter-Glo), dHepaRG; conditions: 72 hours (FIG. 10D), 23.49 nM = 800 ng/ml
Method: as §3, §4, §5

HBV cccDNA = assay: cccDNA levels in HBV-infected primary human hepatocytes (Southern blot); assay type: cell-based, HBV (Genotype D); conditions: PHH, HBV 200 Geq/cell, single treatment at 1 dpi, harvested 3 dpi
Method: as §1, §2

With `O=C(Nc1ccc2nc(NC(=O)c3ccc4ccccc4c3)sc2c1)c1ccccc1` [F7, N-(6-benzamido-1,3-benzothiazol-2-yl)naphthalene-2-carboxamide] as the molecule, how does the CC50 at 72 h (in vitro) read?
Its CC50 at 72 h is > 40 µM.

B1: poly-U/UC PAMP: ~100 nt PAMP motif from the HCV genome comprising 5′ppp and the poly U/UC region, recognized by RIG-I; formulated in liposome (nucleic acid)
chain: GGCCAUCCUGUUUUUUUCCCUUUUUUUUUUUCUUUUUUUUUUUUUUUUUUUUUUUUUUUUUUUUUUCUCCUUUUUUUUUCCUCUUUUUUUCCUUUUCUUUCCUUU
modifications: RNA, 5' {ppp}, backbone and methylation of C not given here; formulated in liposome
notes: ~100 nt PAMP motif from the HCV genome comprising 5′ppp and the poly U/UC region, recognized by RIG-I; formulated in liposome
Which “innate immune gene expression (RT-qPCR)” value (IRF3) does the source give for B1 here?
Its value is “robustly induced innate immune gene expression”.

What about the “IRF3 activation (phosphoserine 386 IRF3) and IFIT1 expression” value (IRF3; poly-U/UC PAMP 50-200 ng/ml, X-RNA 100 ng/ml) of the same molecule?
The value was “induced IRF3 activation”.

What about the CC50 (dHepaRG cells) of the same molecule?
The CC50 was > 0.0235 µM.

What about the cccDNA levels (HBV cccDNA) of the same molecule?
Its cccDNA levels is “suppressed cccDNA levels in the infected PHH to levels similar to CsA treatment”.
